Measured values reported in PMC7352597.

Tests used:
[1] = target: T1, RL2 (recombinant Lactaptin 2), the recombinant fragment of human κ-Casein (human), P07498; assay: cellular fractionation, SDS-PAGE and Western Blot; MDA-MB-231 cells stimulated with 100 µg/mL RL2; fractions for cytoplasm, nucleus and mitochondria; RL2 monomer and dimer bands detected by Western Blot; conditions: remark: other sources report otherwise
T1 chain: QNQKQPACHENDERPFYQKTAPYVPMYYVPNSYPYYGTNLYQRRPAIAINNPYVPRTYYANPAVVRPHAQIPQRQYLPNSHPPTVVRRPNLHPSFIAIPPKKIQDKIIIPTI

[2] = target: T1, RL2 (recombinant Lactaptin 2), the …; assay: SDS-PAGE and Western Blot of cell lysates; MDA-MB-231 cells treated with 200 µg/mL RL2 for indicated times, extracellular RL2 washed off; RL2 monomer and dimer bands detected in lysates with anti-κ-Casein antibody; SDS-PAGE under reducing conditions; conditions: remark: other sources report otherwise

stoichiometry N [1]: 2
stoichiometry N [2]: 2
B1: RL2 (recombinant Lactaptin 2), the recombinant fragment of human κ-Casein, P07498 23-134 (domain or fragment)
chain: T1 chain
